# Experiments:
# T cells (PBT, LPT) = experiment: Integrin accessibility on T cell surface (flow cytometry); format: cell-based, human
# Method: (§1) For surface staining, cells were washed twice in ice-cold PBS and 1×10^6 cells were resuspended in flow buffer (HBSS containing 1% BSA and 0.1% sodium azide). Cells were incubated with the respective mAb at predetermined saturating concentrations or with isotype-matched nonspecific mouse mAb (DAKO) for 30 min at 4° C., washed twice with flow buffer, and incubated with FITC-conjugated goat anti-mouse IgG for 30 min at 4° C. The cells were again washed twice with flow buffer, fixed in 1% paraformaldehyde and analyzed by a single laser flow cytometer (FacsCalibur, […]), using Cell Quest software (BD Pharmingen). Cells stained with a negative control Ab were gated to contain <2% positive cells. To perform analysis of intracellular proteins, cells were washed twice with PBS, adjusted to 1×10^6 cells per sample, and fixed in 90% methanol at −20° C. After fixation, cells were washed twice with PBS and incubated with a monoclonal mouse anti-bax, Bcl-2, Rb, Cyclin A, p21, p27, or p53 antibody for 45 minutes at 4° C., followed by an incubation with a goat anti-mouse FITC-conjugated mAb (Biosource) for 45 minutes at 4° C. Thereafter cells were washed and analyzed by flow cytometry as described above. The background level of immunofluorescence was determined by incubating cells with FITC-conjugated mouse IgG (isotype control).
# PBT [1] = experiment: Apoptosis regulator proteins by immunoblotting and flow cytometry; format: cell-based, human
# Method: (§2) For immunoblotting cells were washed in PBS, and lysed in cell lysis buffer (1% Triton-X, 0.5% NP-40, 0.1% SDS, 0.5% sodium deoxycholate, 5 mM EDTA, 50 mM and 50 mM protease- and phosphatase-inhibitor cocktail 2, 1 mM PMSF, 100 μg/ml trypsin-chymotrypsin inhibitor, 100 μg/ml chymostatin in PBS). The concentration of proteins in each lysate was measured using the Bio-Rad protein assay (Bio-Rad Laboratories, Hercules, Calif.). Equivalent amounts of protein (10 μg) were fractionated on a 10-20% Tris-glycine gel and electrotransferred to a nitrocellulose membrane (Novex, San Diego, Calif.). Membranes were blocked with 5% milk in 0.1% Tween 20-PBS (Fisher Scientific, Hanover Park, Ill.), followed by incubation for 60 m in at room temperature with the indicated primary antibody. The membranes were washed six times with 0.1% Tween 20-PBS and then incubated for 1 h with the appropriate horseradish peroxidase-conjugated secondary antibody (Santa Cruz Biotechnology), washed, and incubated with the chemiluminescent substrate (Perkin-Elmer, Carlsbad, Calif.) for 5 minutes. The membranes were then exposed to film (Amersham, Arlington Heights, Ill.).
# as §1
# [2] = test system: acute and chronic DSS colitis; experiment: Dose finding studies in acute and chronic DSS colitis; format: in vivo, BALB/c mice
# Method: Acute and chronic colitis were induced in BALB/c mice by adding 5% DSS to the drinking water for 7 days to induce acute colitis, or for 3 cycles of 7 days DSS following 7 days without DSS to induce chronic colitis, respectively (Siegmund B, Lehr H A, Fantuzzi G. Leptin: a pivotal mediator of intestinal inflammation in mice. Gastroenterology 2002; 122: 2011-2025). Animals with acute or chronic colitis were treated i.p. with either physiological NaCl as control or Gal-2 once daily (od), twice daily (bid) or three time daily (tid) for 10 days. In one experimental protocol Gal-2 and NaCl 0.9% were injected subcutaneously. Gal-2 doses ranging from 0.5-2 mg/kg body weight in individual doses and total daily doses of 3 mg/kg body weight and different dosing regimens were evaluated. Tacrolimus (1 mg/kg bodyweight), Infliximab (10 mg/kg bodyweight), prednisolone (1 mg/kg bodyweight), all well-known modulators of experimental colitis and human inflammatory bowel diseases were used as positive controls.
# PBT were isolated, stimulated with CD3 for 3 days and cytokine secretion was determined by cytometric bead array (CBA) analysis as described previously (Sturm A, Rilling K, Baumgart D C, Gargas K, Abou-Ghazale T, Raupach B, Eckert J, Schumann R R, Enders C, Sonnenborn U, Wiedenmann B, Dignass A U. Escherichia coli Nissle 1917 distinctively modulates T-cell cycling and expansion via toll-like receptor 2 signaling. Infect.Immun. 2005; 73: 1452-1465.) Mucosal recruitment of granulocytes was assessed by Myeloperoxidase activity (Rath H C, Herfarth H H, Ikeda J S, Grenther W B, Hamm T E, Jr., Balish E, Taurog J D, Hammer R E, Wilson K H, Sartor R B. Normal Luminal Bacteria, Especially Bacteroides Species, Mediate Chronic Colitis, Gastritis, and Arthritis in HLA-B27/Human beta 2 Microglobulin Transgenic Rats. Journal of Clinical Investigation 1996; 98: 945-953).
# PBT [3] = experiment: Analysis of T cell cycling (DNA content, cyclin B1, cell cycle regulators); format: cell-based, human
# Method: as §2
# Flow cytometry was performed after staining for DNA content, and cyclin B1, essentially as previously described (21). Briefly, cells were washed twice with PBS, adjusted to 1×10^6 cells/sample and fixed in 90% Methanol at −20° C. After fixation, cells were washed twice with PBS, incubated for 45 min at 4° C. with a cyclin B1-FITC conjugated monoclonal antibody. After the final wash, cells were resupended in PBS and 5 μl of RNase (0.6 μg/ml, 30-60 Kunitz Units, Sigma), incubated at 37° C. for 15 min and the chilled on ice. One hundred and twenty five microliters of PI (200 μg/ml) were added prior to analysis by flow cytometry. Each analysis was performed on at least 25.000 events.
# T cells = experiment: Binding of biotinylated Gal-2 to T lymphocytes (flow cytometry); design: species or system human
# Method: To measure Gal-2 binding to T lymphocytes, aliquots of cell suspensions were kept as controls or stimulated for 1, 6, 12, 24, 48, and 72 h with anti-CD3 mAb or PMA and PHA and incubated in the presence of 5 μg/ml biotin-labeled Gal-2. Cells were then harvested, washed and stained with anti-CD3-FITC mAb and APC-labeled streptavidin (Biosource) followed by flow cytofluorometric analysis. Cells cultured in the absence of biotin-labeled Gal-2 and stained with FITC-labeled mouse IgG (BD Pharmingen) or APC-labeled streptavidin served as isotype controls. Each analysis was performed on at least 20,000 events.
molecule,measurement,setting,value
"galectin-2: β-galactoside binding lectin, non-covalent dimer with subunits of about 14 kDa; recombinant human or rat (SEQ ID NO:1, 2) (protein) MAGELEVKNMDMKPGSTLKITGSIADGTDGFVINLGQGTDKLNLHFNPRFSESTIVCNSLDGSNWGQEQREDHLCFSPGSEVKFTVTFESDKFKVKLPDGHELTFPNRLGHSHLSYLSVRGGFNMSSFKLKE",β4 integrin accessibility,"T cells (PBT, LPT); CD3 activated PBT",neither galectin-1 nor galectin-2 changed
same,integrin α5 accessibility,"T cells (PBT, LPT); CD3 activated PBT, 50 μg/ml",downregulated
same,integrin β1 accessibility,"T cells (PBT, LPT); CD3 activated PBT, 50 μg/ml",downregulated
same,integrin a5 accessibility,"T cells (PBT, LPT); CD3 activated PBT, second statement",slightly upregulated
same,integrin β1 accessibility,"T cells (PBT, LPT); intestinal T cells (LPT)",failed to modulate
same,bax protein expression,"PBT [1]; 0, 25, 50 μg/ml, 48 h",increases
same,bcl-2 protein expression,"PBT [1]; 0, 25, 50 μg/ml, 48 h",significantly reduces
same,cytochrome c release,PBT [1]; data not shown,"dose-dependently increased cytochrome c release in activated, but not resting T cells"
same,DNA-fragmentation factor (DFF),PBT [1]; immunoblotting,dose-dependently upregulated
same,effect on disease activity (DAI),"[2]; acute and chronic DSS colitis, i.p., different dosing intervals and doses",significantly reduced disease activity
same,safety and toxicity,[2]; acute and chronic DSS model,did not reveal any abnormalities
same,"myeloperoxidase, mucosal granulocyte infiltration",[2]; data not shown,significant reduction of mucosal granulocyte infiltration
same,deaths,[2]; doses 1-3 mg/kg body weight,no deaths were observed
same,"human versus rat Gal-2, disease activity",[2]; equivalent doses and treatment regimens,No significant differences were observed
same,improvement of disease activity,[2]; optimal dose 2×1 mg/kg bodyweight,more than 250%
same,total daily dose range with largest benefit on disease activity,[2]; per day,1.5-3 mg/kg bodyweight
same,effect on disease activity (DAI),[2]; subcutaneous (sc) administration,only in minor and not significant improvement of disease activity
same,effects compared with positive controls,"[2]; tacrolimus 1 mg/kg, infliximab 10 mg/kg, prednisolone 1 mg/kg",comparable with the potent immunomodulator tacrolimus and more potent as the effects observed for prednisolone and infliximab
same,histological analyses of intestinal injury and inflammation,[2]; versus control animals,significant reduction of intestinal injury and inflammation
same,cyclin B1 levels / cell cycle progression,PBT [3]; anti-CD3 activated PBT,unchanged cyclin B1 levels
same,cell cycle phase distribution,"PBT [3]; anti-CD3 activated PBT, 25, 50, 100 μg/ml",comparable
same,"protein levels of cyclin D2, Rb, cyclin A, p21, p27, p53","PBT [3]; western blot, 72 h",did not alter protein levels
same,time bound to T cells,T cells,more than 72 hours
same,binding to T cells after stimulation,T cells; PMA/PHA or anti-CD3 antibody,increase in cell staining
same,binding to T cells,T cells; unstimulated T cells,bound to unstimulated T cells in a β-galactoside-specific manner

# Reference: patent publication US20080113907A1, “Uses Of Galectin-2” (Charite-Universitat-Smedizin Berlin, priority 2004, published 2008)
